The numbers were not newly measured in article PMC8246649 (Biochemistry, 2021), which cites them from elsewhere.

One data set has as its target UNC119B (Homo sapiens, UniProt A6NIH7). The settings on record: read-out: Reported Kd of release factor to UNC119B.
The next data set addresses UNC119A (Homo sapiens, UniProt Q13432). Conditions: read-out: Reported Kd of release factor to UNC119A.

UNC119B, sequence (A6NIH7 whole entry): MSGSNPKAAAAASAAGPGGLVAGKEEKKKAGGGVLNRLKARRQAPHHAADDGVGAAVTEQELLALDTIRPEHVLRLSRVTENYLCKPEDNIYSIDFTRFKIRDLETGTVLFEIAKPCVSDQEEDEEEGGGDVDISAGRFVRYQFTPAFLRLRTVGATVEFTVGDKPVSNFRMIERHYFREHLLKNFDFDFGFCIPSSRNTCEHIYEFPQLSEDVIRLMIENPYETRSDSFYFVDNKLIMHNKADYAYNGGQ

What is called Kd is the free concentration of one partner at which half of the binding sites on the other are occupied at equilibrium, for simple one-to-one binding. As to “ARL3: ADP ribosylation factor-like protein 3, release factor of UNC119 cargo”, the Kd with UNC119B is 33 nM.
Regarding “ARL2: ADP ribosylation factor-like protein 2, release factor of UNC119 cargo”, the Kd with UNC119A is 159 nM; with UNC119B, 216 nM.
